We go through one variant from PMC10000386.

Sequences and labels used below:
B1: Bak [human] / Bak [human] (parent)
chain 1: MASGQGPGPPRQECGEPALPSASEEQVAQDTEEVFRSYVFYRHQQEQEAEGVAAPADPEMVTLPLQPSSTMGQVGRQLAIIGDDINRRYDSEFQTMLQHLQPTAENAYEYFTKIATSLFESGINWGRVVALLGFGYRLALHVYQHGLTGFLGQVTRFVVDFMLHHCIARWIAQRGGWVAALNLGNGPILNVLVVLGVVLLGQFVVRRFFKS
chain 2: B1 chain 1

Variants of B1 are the subject of one assay. The assay is described as follows: BiFC (flow cytometry). Particulars: with Bak [human]; 6 independent experiments (H164A), 8 (WT); read off a plot. On the technique in general: In flow cytometry, cells or beads pass a laser one at a time.
Consider chain 1 H164A, for which the response (Mean Venus/Mean mRFP) is 1.8.

The assay is the same for the next values; noted with them: with Bak [human]; 6 independent experiments; read off a plot.
Turning to chain 1 H164A, the response (Mean Venus/Mean mRFP) worked out at 1.8.
